Starred links: 1 amine or outer side, 2 acyl side, 3 side chain; linkers in the order of their positions; H or OH if unused. Non-standard residues stand in square brackets, D forms with d. Groups on a side chain read outwards from the residue. No end group written: not given here. *: point of attachment. C20 diacid = O=C(O)CCCCCCCCCCCCCCCCCCC(=O)*; C18 diacid = O=C(O)CCCCCCCCCCCCCCCCC(=O)*; γGlu = O=C(O)[C@H](CCC(=O)[*:2])N[*:1]; αMeF = C[C@](N)(Cc1ccccc1)C(=O)O; AEEA = NCCOCCOCC(=O)O; Aib = CC(C)(N)C(=O)O
B1: Peptide 410 (peptide)
peptide: H[Aib]QGTFTSDVSK[αMeF]LDTK([AEEA-AEEA-γGlu-C20 diacid])RARDFVAWLL[Aib]TE-OH
modifications: N-terminus assumed
SMILES: CC(C)C[C@H](NC(=O)[C@H](Cc1c[nH]c2ccccc12)NC(=O)[C@H](C)NC(=O)[C@@H](NC(=O)[C@H](Cc1ccccc1)NC(=O)[C@H](CC(=O)O)NC(=O)[C@H](CCCNC(=N)N)NC(=O)[C@H](C)NC(=O)[C@H](CCCNC(=N)N)NC(=O)[C@H](CCCCNC(=O)COCCOCCNC(=O)COCCOCCNC(=O)CC[C@H](NC(=O)CCCCCCCCCCCCCCCCCCC(=O)O)C(=O)O)NC(=O)[C@@H](NC(=O)[C@H](CC(=O)O)NC(=O)[C@H](CC(C)C)NC(=O)[C@](C)(Cc1ccccc1)NC(=O)[C@H](CCCCN)NC(=O)[C@H](CO)NC(=O)[C@@H](NC(=O)[C@H](CC(=O)O)NC(=O)[C@H](CO)NC(=O)[C@@H](NC(=O)[C@H](Cc1ccccc1)NC(=O)[C@@H](NC(=O)CNC(=O)[C@H](CCC(N)=O)NC(=O)C(C)(C)NC(=O)[C@@H](N)Cc1c[nH]cn1)[C@@H](C)O)[C@@H](C)O)C(C)C)[C@@H](C)O)C(C)C)C(=O)N[C@@H](CC(C)C)C(=O)NC(C)(C)C(=O)N[C@H](C(=O)N[C@@H](CCC(=O)O)C(=O)O)[C@@H](C)O
B2: Peptide 409 (peptide)
peptide: H[Aib]QGTFTSDVSK[αMeF]LDTK([AEEA-AEEA-γGlu-C18 diacid])RARDFVAWLL[Aib]TE-OH
modifications: N-terminus assumed
SMILES: CC(C)C[C@H](NC(=O)[C@H](Cc1c[nH]c2ccccc12)NC(=O)[C@H](C)NC(=O)[C@@H](NC(=O)[C@H](Cc1ccccc1)NC(=O)[C@H](CC(=O)O)NC(=O)[C@H](CCCNC(=N)N)NC(=O)[C@H](C)NC(=O)[C@H](CCCNC(=N)N)NC(=O)[C@H](CCCCNC(=O)COCCOCCNC(=O)COCCOCCNC(=O)CC[C@H](NC(=O)CCCCCCCCCCCCCCCCC(=O)O)C(=O)O)NC(=O)[C@@H](NC(=O)[C@H](CC(=O)O)NC(=O)[C@H](CC(C)C)NC(=O)[C@](C)(Cc1ccccc1)NC(=O)[C@H](CCCCN)NC(=O)[C@H](CO)NC(=O)[C@@H](NC(=O)[C@H](CC(=O)O)NC(=O)[C@H](CO)NC(=O)[C@@H](NC(=O)[C@H](Cc1ccccc1)NC(=O)[C@@H](NC(=O)CNC(=O)[C@H](CCC(N)=O)NC(=O)C(C)(C)NC(=O)[C@@H](N)Cc1c[nH]cn1)[C@@H](C)O)[C@@H](C)O)C(C)C)[C@@H](C)O)C(C)C)C(=O)N[C@@H](CC(C)C)C(=O)NC(C)(C)C(=O)N[C@H](C(=O)N[C@@H](CCC(=O)O)C(=O)O)[C@@H](C)O
B3: Peptide 414 (peptide)
peptide: H[Aib]QGTFTSDVSK[αMeF]LDKK([AEEA-AEEA-γGlu-C18 diacid])RARDFVRWLL[Aib]E-OH
modifications: N-terminus assumed
SMILES: CC(C)C[C@H](NC(=O)[C@H](Cc1c[nH]c2ccccc12)NC(=O)[C@H](CCCNC(=N)N)NC(=O)[C@@H](NC(=O)[C@H](Cc1ccccc1)NC(=O)[C@H](CC(=O)O)NC(=O)[C@H](CCCNC(=N)N)NC(=O)[C@H](C)NC(=O)[C@H](CCCNC(=N)N)NC(=O)[C@H](CCCCNC(=O)COCCOCCNC(=O)COCCOCCNC(=O)CC[C@H](NC(=O)CCCCCCCCCCCCCCCCC(=O)O)C(=O)O)NC(=O)[C@H](CCCCN)NC(=O)[C@H](CC(=O)O)NC(=O)[C@H](CC(C)C)NC(=O)[C@](C)(Cc1ccccc1)NC(=O)[C@H](CCCCN)NC(=O)[C@H](CO)NC(=O)[C@@H](NC(=O)[C@H](CC(=O)O)NC(=O)[C@H](CO)NC(=O)[C@@H](NC(=O)[C@H](Cc1ccccc1)NC(=O)[C@@H](NC(=O)CNC(=O)[C@H](CCC(N)=O)NC(=O)C(C)(C)NC(=O)[C@@H](N)Cc1c[nH]cn1)[C@@H](C)O)[C@@H](C)O)C(C)C)C(C)C)C(=O)N[C@@H](CC(C)C)C(=O)NC(C)(C)C(=O)N[C@@H](CCC(=O)O)C(=O)O
B4: Peptide 411 (peptide)
peptide: H[Aib]QGTFTSDVSK[αMeF]LDTK([AEEA-AEEA-γGlu-C18 diacid])RAQDFVAWLEAGG-OH
modifications: N-terminus assumed
SMILES: CC(C)C[C@H](NC(=O)[C@H](Cc1c[nH]c2ccccc12)NC(=O)[C@H](C)NC(=O)[C@@H](NC(=O)[C@H](Cc1ccccc1)NC(=O)[C@H](CC(=O)O)NC(=O)[C@H](CCC(N)=O)NC(=O)[C@H](C)NC(=O)[C@H](CCCNC(=N)N)NC(=O)[C@H](CCCCNC(=O)COCCOCCNC(=O)COCCOCCNC(=O)CC[C@H](NC(=O)CCCCCCCCCCCCCCCCC(=O)O)C(=O)O)NC(=O)[C@@H](NC(=O)[C@H](CC(=O)O)NC(=O)[C@H](CC(C)C)NC(=O)[C@](C)(Cc1ccccc1)NC(=O)[C@H](CCCCN)NC(=O)[C@H](CO)NC(=O)[C@@H](NC(=O)[C@H](CC(=O)O)NC(=O)[C@H](CO)NC(=O)[C@@H](NC(=O)[C@H](Cc1ccccc1)NC(=O)[C@@H](NC(=O)CNC(=O)[C@H](CCC(N)=O)NC(=O)C(C)(C)NC(=O)[C@@H](N)Cc1c[nH]cn1)[C@@H](C)O)[C@@H](C)O)C(C)C)[C@@H](C)O)C(C)C)C(=O)N[C@@H](CCC(=O)O)C(=O)N[C@@H](C)C(=O)NCC(=O)NCC(=O)O
B5: Peptide 407 (peptide)
peptide: H[Aib]QGTFTSDVSK[αMeF]LDTK([AEEA-AEEA-γGlu-C20 diacid])RAQDFVRWLEA[Aib]G-OH
modifications: N-terminus assumed
SMILES: CC(C)C[C@H](NC(=O)[C@H](Cc1c[nH]c2ccccc12)NC(=O)[C@H](CCCNC(=N)N)NC(=O)[C@@H](NC(=O)[C@H](Cc1ccccc1)NC(=O)[C@H](CC(=O)O)NC(=O)[C@H](CCC(N)=O)NC(=O)[C@H](C)NC(=O)[C@H](CCCNC(=N)N)NC(=O)[C@H](CCCCNC(=O)COCCOCCNC(=O)COCCOCCNC(=O)CC[C@H](NC(=O)CCCCCCCCCCCCCCCCCCC(=O)O)C(=O)O)NC(=O)[C@@H](NC(=O)[C@H](CC(=O)O)NC(=O)[C@H](CC(C)C)NC(=O)[C@](C)(Cc1ccccc1)NC(=O)[C@H](CCCCN)NC(=O)[C@H](CO)NC(=O)[C@@H](NC(=O)[C@H](CC(=O)O)NC(=O)[C@H](CO)NC(=O)[C@@H](NC(=O)[C@H](Cc1ccccc1)NC(=O)[C@@H](NC(=O)CNC(=O)[C@H](CCC(N)=O)NC(=O)C(C)(C)NC(=O)[C@@H](N)Cc1c[nH]cn1)[C@@H](C)O)[C@@H](C)O)C(C)C)[C@@H](C)O)C(C)C)C(=O)N[C@@H](CCC(=O)O)C(=O)N[C@@H](C)C(=O)NC(C)(C)C(=O)NCC(=O)O
B6: Peptide 408 (peptide)
peptide: H[Aib]QGTFTSDVSK[αMeF]LDTK([AEEA-AEEA-γGlu-γGlu-C20 diacid])RAQDFVRWLEA[Aib]G-OH
modifications: N-terminus assumed
SMILES: CC(C)C[C@H](NC(=O)[C@H](Cc1c[nH]c2ccccc12)NC(=O)[C@H](CCCNC(=N)N)NC(=O)[C@@H](NC(=O)[C@H](Cc1ccccc1)NC(=O)[C@H](CC(=O)O)NC(=O)[C@H](CCC(N)=O)NC(=O)[C@H](C)NC(=O)[C@H](CCCNC(=N)N)NC(=O)[C@H](CCCCNC(=O)COCCOCCNC(=O)COCCOCCNC(=O)CC[C@H](NC(=O)CC[C@H](NC(=O)CCCCCCCCCCCCCCCCCCC(=O)O)C(=O)O)C(=O)O)NC(=O)[C@@H](NC(=O)[C@H](CC(=O)O)NC(=O)[C@H](CC(C)C)NC(=O)[C@](C)(Cc1ccccc1)NC(=O)[C@H](CCCCN)NC(=O)[C@H](CO)NC(=O)[C@@H](NC(=O)[C@H](CC(=O)O)NC(=O)[C@H](CO)NC(=O)[C@@H](NC(=O)[C@H](Cc1ccccc1)NC(=O)[C@@H](NC(=O)CNC(=O)[C@H](CCC(N)=O)NC(=O)C(C)(C)NC(=O)[C@@H](N)Cc1c[nH]cn1)[C@@H](C)O)[C@@H](C)O)C(C)C)[C@@H](C)O)C(C)C)C(=O)N[C@@H](CCC(=O)O)C(=O)N[C@@H](C)C(=O)NC(C)(C)C(=O)NCC(=O)O
B7: Peptide 412 (peptide)
peptide: H[Aib]QGTFTSDVSK[αMeF]LDTK([AEEA-AEEA-γGlu-C20 diacid])RAQDFVAWLEAGG-OH
modifications: N-terminus assumed
SMILES: CC(C)C[C@H](NC(=O)[C@H](Cc1c[nH]c2ccccc12)NC(=O)[C@H](C)NC(=O)[C@@H](NC(=O)[C@H](Cc1ccccc1)NC(=O)[C@H](CC(=O)O)NC(=O)[C@H](CCC(N)=O)NC(=O)[C@H](C)NC(=O)[C@H](CCCNC(=N)N)NC(=O)[C@H](CCCCNC(=O)COCCOCCNC(=O)COCCOCCNC(=O)CC[C@H](NC(=O)CCCCCCCCCCCCCCCCCCC(=O)O)C(=O)O)NC(=O)[C@@H](NC(=O)[C@H](CC(=O)O)NC(=O)[C@H](CC(C)C)NC(=O)[C@](C)(Cc1ccccc1)NC(=O)[C@H](CCCCN)NC(=O)[C@H](CO)NC(=O)[C@@H](NC(=O)[C@H](CC(=O)O)NC(=O)[C@H](CO)NC(=O)[C@@H](NC(=O)[C@H](Cc1ccccc1)NC(=O)[C@@H](NC(=O)CNC(=O)[C@H](CCC(N)=O)NC(=O)C(C)(C)NC(=O)[C@@H](N)Cc1c[nH]cn1)[C@@H](C)O)[C@@H](C)O)C(C)C)[C@@H](C)O)C(C)C)C(=O)N[C@@H](CCC(=O)O)C(=O)N[C@@H](C)C(=O)NCC(=O)NCC(=O)O

Experiments:
[1] = molecular target: human GLP-1 receptor (hGLP-1R) (human, UniProt P43220 24-463); assay: cell-based or functional assay
[2] = molecular target: human glucagon receptor (hGCGR) (human, UniProt P47871 26-477); assay: cell-based or functional assay
Chain of human glucagon receptor (hGCGR) (P47871 26-477): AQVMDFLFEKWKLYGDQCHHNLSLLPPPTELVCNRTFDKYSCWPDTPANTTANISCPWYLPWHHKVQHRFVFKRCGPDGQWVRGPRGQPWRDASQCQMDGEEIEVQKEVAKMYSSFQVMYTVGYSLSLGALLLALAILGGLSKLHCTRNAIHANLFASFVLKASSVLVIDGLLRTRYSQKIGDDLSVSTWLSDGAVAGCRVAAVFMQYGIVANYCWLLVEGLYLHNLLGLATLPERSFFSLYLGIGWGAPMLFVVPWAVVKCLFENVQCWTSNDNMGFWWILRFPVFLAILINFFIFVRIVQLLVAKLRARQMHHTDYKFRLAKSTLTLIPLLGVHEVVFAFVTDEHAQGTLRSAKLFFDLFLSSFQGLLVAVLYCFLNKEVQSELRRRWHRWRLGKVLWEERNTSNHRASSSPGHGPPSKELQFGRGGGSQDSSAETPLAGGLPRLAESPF

Binder | hGLP-1R EC50 (pM) [1] [pM] | hGluc-R EC50 (pM) [2] [pM]
B1 | 78 | 455
B2 | 22.7 | 203
H[Aib]QGTFTSDVSK[αMeF]LDTK([AEEA-AEEA-γGlu-γGlu-C20 diacid])RAQDFVAWLEAGG-OH [Peptide 413] | 406 | 1020
B3 | 32.3 | 26.9
B4 | 98.1 | 378
B5 | 209 | 462
B6 | 370 | 828
H[Aib]QGTFTSDVSK[αMeF]LDTK([AEEA-AEEA-γGlu-γGlu-C20 diacid])RARDFVQWLLE[Aib]G-NH2 [Peptide 458] | – | 385
B7 | 186 | 397

From patent publication US20230357348A1 (AstraZeneca / MedImmune, published 2023)
